Data reported in the supplement of paper PMC7877785.
± gives the uncertainty stated by the source.

Experiment: self-splicing fitness, log relative to wild type (ln ratio); higher = more splicing; Tetrahymena group I intron in knt gene, E. coli kanamycin selection, DiMSum; sequences stand for … in CUCUCU…GGAGGGAAAAGUUAUCAGGCAUGCACCUGGUAGCUAGUCUUUAAACCAAUAGAUUGCAUCGGUUUAAAAGGCAAGACCGUCAAAUUGCGGGAAAGGGGUCAACAGCCGUUCAGUACCAAGUCUCAGGGGAAACUUUGAGAUGGCCUUGCAAAGGGUAUGGUAAUAAGCUGACGGACAUGGUCCUAACCACGCAGCCAAGUCCUAAGUCAACAGAUCUUCUGUUGAUAUGGAUGCAGUUCACAGACUAAAUGUCGGUCGGGGAAGAUGUAUUCUUCUCAUAAGAUAUAGUCGGACCUCUCCUUAAUGGGAGCUAGCGGAUGAAGUGAUGCAACACUGGAGCCGCUGGGAACUAAUUUGUAUGCGAAAGUAUAUUGAUUAGUUUUGGAGUACUCGUGGUCG
Method in brief: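 Fitness was computed with DiMSum as the error-weighted combination of replicate fold changes, kanamycin versus none, each normalised to wild type. The library randomised all eight intron nucleotides of the P1ex region, with the intron placed in the knt kanamycin-resistance gene on pET-22b(+) in E. coli BL21(DE3). Six replicate transformations were grown overnight at 37°C or 30°C on LB agar with or without 25 μg/mL kanamycin, plus 100 μg/mL carbenicillin, 50 μM IPTG and 0.2% rhamnose. Pooled colonies were amplicon-sequenced on an Illumina HiSeq 2500.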

Sequence: UUUGAGCAAUAUUACGCACG
- self-splicing fitness (ln) (37 °C): -1.45 ± 0.42

Sequence: CCUUAGCAAUAUUACGCAUG
- self-splicing fitness (ln) (30 °C): -3.78 ± 0.19
- self-splicing fitness (ln) (37 °C): -2.14 ± 0.18

Sequence: CACCAGCAAUAUUACGCUAU
- self-splicing fitness (ln) (30 °C): -4.03 ± 0.16
- self-splicing fitness (ln) (37 °C): -2.21 ± 0.13

Sequence: CUGCAGCAAUAUUACGCCAG
- self-splicing fitness (ln) (30 °C): -2.56 ± 0.42
- self-splicing fitness (ln) (37 °C): -1.07 ± 0.21

Sequence: AUCCAGCAAUAUUACGACGC
- self-splicing fitness (ln) (30 °C): -1.16 ± 0.12
- self-splicing fitness (ln) (37 °C): -0.49 ± 0.15

Sequence: ACGAAGCAAUAUUACGCCCC
- self-splicing fitness (ln) (30 °C): -0.521 ± 0.21
- self-splicing fitness (ln) (37 °C): -2.24 ± 0.39

Sequence: GACCAGCAAUAUUACGAGGU
- self-splicing fitness (ln) (30 °C): -2.95 ± 0.12
- self-splicing fitness (ln) (37 °C): -3.04 ± 0.2

Sequence: GCCCAGCAAUAUUACGAAUG
- self-splicing fitness (ln) (30 °C): -4.15 ± 0.24
- self-splicing fitness (ln) (37 °C): -2.26 ± 0.23

Sequence: AAUGAGCAAUAUUACGCUAC
- self-splicing fitness (ln) (30 °C): -3.12 ± 0.27
- self-splicing fitness (ln) (37 °C): -2.84 ± 0.34

Sequence: CAGCAGCAAUAUUACGCGCU
- self-splicing fitness (ln) (30 °C): -3.39 ± 0.21
- self-splicing fitness (ln) (37 °C): -2.45 ± 0.16

Sequence: AACGAGCAAUAUUACGUCUG
- self-splicing fitness (ln) (30 °C): -3.17 ± 0.2
- self-splicing fitness (ln) (37 °C): -1.63 ± 0.16

Sequence: AUAGAGCAAUAUUACGCUUG
- self-splicing fitness (ln) (30 °C): -0.549 ± 0.12
- self-splicing fitness (ln) (37 °C): -0.411 ± 0.13

Sequence: ACUGAGCAAUAUUACGAGAA
- self-splicing fitness (ln) (30 °C): -2.33 ± 0.38
- self-splicing fitness (ln) (37 °C): -1.96 ± 0.32

Sequence: GGGAAGCAAUAUUACGGCAA
- self-splicing fitness (ln) (30 °C): -0.863 ± 0.14
- self-splicing fitness (ln) (37 °C): -1.02 ± 0.14

Sequence: GAGCAGCAAUAUUACGUUCG
- self-splicing fitness (ln) (30 °C): -1.51 ± 0.097
- self-splicing fitness (ln) (37 °C): -0.474 ± 0.098

Sequence: CUCUAGCAAUAUUACGCACA
- self-splicing fitness (ln) (30 °C): -3.24 ± 0.4
- self-splicing fitness (ln) (37 °C): -3.82 ± 0.46

Sequence: ACACAGCAAUAUUACGACCC
- self-splicing fitness (ln) (30 °C): -0.35 ± 0.14
- self-splicing fitness (ln) (37 °C): -0.0588 ± 0.2

Sequence: AUUUAGCAAUAUUACGGAGC
- self-splicing fitness (ln) (30 °C): -3.49 ± 0.45

Sequence: AAUGAGCAAUAUUACGGAGG
- self-splicing fitness (ln) (30 °C): -2.69 ± 0.33
- self-splicing fitness (ln) (37 °C): -2.45 ± 0.38

Sequence: CUACAGCAAUAUUACGGAGA
- self-splicing fitness (ln) (30 °C): -4.39 ± 0.42
- self-splicing fitness (ln) (37 °C): -2.27 ± 0.27

Sequence: GUUCAGCAAUAUUACGGGGC
- self-splicing fitness (ln) (30 °C): -2.68 ± 0.16
- self-splicing fitness (ln) (37 °C): -2.78 ± 0.21

Sequence: CUAUAGCAAUAUUACGACAA
- self-splicing fitness (ln) (30 °C): -2.79 ± 0.5
- self-splicing fitness (ln) (37 °C): -2.64 ± 0.44

Sequence: GCAAAGCAAUAUUACGGCUU
- self-splicing fitness (ln) (30 °C): -1.48 ± 0.11
- self-splicing fitness (ln) (37 °C): -0.763 ± 0.15

Sequence: AAGAAGCAAUAUUACGUCCA
- self-splicing fitness (ln) (30 °C): -0.641 ± 0.13
- self-splicing fitness (ln) (37 °C): 0.0432 ± 0.14

Sequence: UCAUAGCAAUAUUACGGGGC
- self-splicing fitness (ln) (37 °C): -3.14 ± 0.37

Sequence: AGCAAGCAAUAUUACGGAAU
- self-splicing fitness (ln) (30 °C): -3.44 ± 0.15
- self-splicing fitness (ln) (37 °C): -0.957 ± 0.093

Sequence: GCGCAGCAAUAUUACGAAUA
- self-splicing fitness (ln) (30 °C): -2.09 ± 0.2
- self-splicing fitness (ln) (37 °C): -1.02 ± 0.14

Sequence: GCAAAGCAAUAUUACGUCUA
- self-splicing fitness (ln) (30 °C): -0.983 ± 0.13
- self-splicing fitness (ln) (37 °C): -0.637 ± 0.11

Sequence: GGUCAGCAAUAUUACGCAGC
- self-splicing fitness (ln) (30 °C): -1.76 ± 0.14
- self-splicing fitness (ln) (37 °C): -0.838 ± 0.13

Sequence: CAGGAGCAAUAUUACGGGUC
- self-splicing fitness (ln) (30 °C): -2.84 ± 0.19
- self-splicing fitness (ln) (37 °C): -2.92 ± 0.21

Sequence: CGCGAGCAAUAUUACGAAGC
- self-splicing fitness (ln) (37 °C): -1.75 ± 0.45

Sequence: UUUUAGCAAUAUUACGUAGG
- self-splicing fitness (ln) (30 °C): -1.99 ± 0.11
- self-splicing fitness (ln) (37 °C): -0.229 ± 0.13

Sequence: UGGCAGCAAUAUUACGAGGU
- self-splicing fitness (ln) (30 °C): -3.29 ± 0.23
- self-splicing fitness (ln) (37 °C): -2.53 ± 0.3

Sequence: UACAAGCAAUAUUACGGGAC
- self-splicing fitness (ln) (30 °C): -2.61 ± 0.16
- self-splicing fitness (ln) (37 °C): -2.58 ± 0.17

Sequence: UAUUAGCAAUAUUACGCUCU
- self-splicing fitness (ln) (30 °C): -1.02 ± 0.17
- self-splicing fitness (ln) (37 °C): -0.332 ± 0.32

Sequence: CGCGAGCAAUAUUACGACAG
- self-splicing fitness (ln) (30 °C): -0.942 ± 0.11
- self-splicing fitness (ln) (37 °C): -0.403 ± 0.16

Sequence: GGAUAGCAAUAUUACGACAU
- self-splicing fitness (ln) (30 °C): -0.425 ± 0.014
- self-splicing fitness (ln) (37 °C): -0.0181 ± 0.034

Sequence: UAUCAGCAAUAUUACGUUAA
- self-splicing fitness (ln) (30 °C): -0.97 ± 0.093
- self-splicing fitness (ln) (37 °C): -0.0683 ± 0.11

Sequence: CCGGAGCAAUAUUACGUCAU
- self-splicing fitness (ln) (30 °C): -4 ± 0.24
- self-splicing fitness (ln) (37 °C): -2.48 ± 0.21
